We go through one protein from paper PMC10196870, “Structural insights into the substrate recognition of serine palmitoyltransferase from Sphingobacterium multivorum” (The Journal of Biological Chemistry, 2023).

This data set concerns the molecule itself. The data set can be described thus: crystal structure; crystals grown in Tris buffer, soaked in Tricine-buffered Tris-free solution without or with amino acids (L-Ser, L-Hse, Gly, L-Ala, L-Thr); space group P4(1)2(1)2, one molecule per asymmetric unit, dimer generated by crystallographic symmetry; 100 K.

B1: Sphingobacterium multivorum serine palmitoyltransferase (enzyme, UniProt A7BFV6 1-399, looked up)
chain: MSKGKLGEKISQFKIVEELKAKGLYAYFRPIQSKQDTEVKIDGRRVLMFGSNSYLGLTTDTRIIKAAQDALEKYGTGCAGSRFLNGTLDIHVELEEKLSAYVGKEAAILFSTGFQSNLGPLSCLMGRNDYILLDERDHASIIDGSRLSFSKVIKYGHNNMEDLRAKLSRLPEDSAKLICTDGIFSMEGDIVNLPELTSIANEFDAAVMVDDAHSLGVIGHKGAGTASHFGLNDDVDLIMGTFSKSLASLGGFVAGDADVIDFLKHNARSVMFSASMTPASVASTLKALEIIQNEPEHIEKLWKNTDYAKAQLLDHGFDLGATESPILPIFIRSNEKTFWVTKMLQDDGVFVNPVVSPAVPAEESLIRFSLMATHTYDQIDEAIEKMVKVFKQAEVETLI
modifications: PLP-Lys244 internal aldimine (ligand-free form); in the amino acid complexes PLP forms an external aldimine with the amino acid
notes: serine palmitoyltransferase of Sphingobacterium multivorum, full length, 398 amino acid residues; the model holds Ser2 to Val395; no tag is mentioned; also called S. multivorum SPT; SPT; source: E. coli BL21 (DE3) pLysS, purified (DEAE, Butyl, second DEAE column chromatography, desalting)
As to B1, the binding result is listed as “binds”.
